Experimental data as given in the supplement of paper PMC12764529.
± gives the half width of the 95% confidence interval.

Columns and labels:
[1] = folding stability dG unfold from trypsin proteolysis; higher = more stable
Procedure, shortened: (§1)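 Sequencing followed digestion of designed mini-proteins with trypsin and chymotrypsin, each at 11 concentrations in threefold dilutions together with a no-protease condition. The mini-proteins were under 80 residues, had no cysteine, sat in a PA-tagged cDNA display construct, and were kept only if AlphaFold2 dimer inter-PAE was above 15. From the counts, Bayesian fitting gave K50, and unfolding free energy was derived against a sequence-predicted unfolded-state K50 and a shared folded-state K50, per protease or combined.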

[2] = folding stability dG unfold from chymotrypsin proteolysis; higher = more stable
Procedure, shortened: as §1

[3] = folding stability dG unfold (combined trypsin and chymotrypsin); higher = more stable
Procedure, shortened: as §1

Row | Sequence | folding stability dG unfold [1] | folding stability dG unfold [2] | folding stability dG unfold [3]
1 | SAGPMTLEILYKRPANEPFTLEDLELAKEVEEAVAALVPSKYKVRIKSIEYEKYPDYYYIRVTIEVEKPSAG [r5_121_TrMRF] | 4.57 ± 0.13 kcal/mol | 4.71 ± 0.061 kcal/mol | 4.64 ± 0.083 kcal/mol
2 | SAGPNLENLEIVEIKAEVLPDNSVIVPLKVRNDNGEEEEVWGRVGNGIVTLTYPNGFPAVAFIPPSAFSAGG [r19_84_TrMRF] | 0.683 ± 0.033 kcal/mol | 0.576 ± 0.089 kcal/mol | 0.651 ± 0.051 kcal/mol
3 | SAGPPKKVEIPVRYPFDGWEIMIQIDPKDPKIEIHVHNPEHRERAREYARTIARIFQENGIPVEIEPWSAGG [r19_354_TrROS] | 1.48 ± 0.057 kcal/mol | 1.91 ± 0.095 kcal/mol | 1.73 ± 0.21 kcal/mol
4 | SAGPPVEIPITIKIRYWKPDPDGPKPVEERTIPIPVRMPPDQLDDPAFNNFIKEALDELPPGIRMIEITSAG [r5_849_TrROS] | 0.526 ± 0.042 kcal/mol | 1.28 ± 0.064 kcal/mol | 1.07 ± 0.068 kcal/mol
5 | SAGPPVLALFTGSPEDVQELLDRLPPDFEVEVGRLPDLYVARFPPDVPPGTVLLPGADGRPAVVEVVEASAG [r5_123_TrMRF] | 0.526 ± 0.041 kcal/mol | 1.68 ± 0.037 kcal/mol | 1.14 ± 0.12 kcal/mol
6 | SAGPVTIPIFYRVPPGEPMTPEAKEFAIELAKYIARLFPPGYKIEIDSIEWERHPNYYYFRVTIEIEPPSAG [r5_121_TrROS] | 3.64 ± 0.16 kcal/mol | 3.8 ± 0.085 kcal/mol | 3.62 ± 0.27 kcal/mol
7 | SAGPVVVDPNGKLLPLKVKAVFVIDPELLEEKAKESDNSLEKAIRDLVKELEAELKAKGYDVEVEGIGSAGG [r19_305_TrMRF] | 1.12 ± 0.067 kcal/mol | 1.97 ± 0.049 kcal/mol | 1.68 ± 0.061 kcal/mol
8 | SAGPWMPYYVKVKFPDEEKLEKLVDEIQDESGFNMQVKKNPENGTRTVRVNMPPNIMEALKKHGFEIVSAGG [r19_306_TrROS] | 0.415 ± 0.11 kcal/mol | -0.208 ± 0.46 kcal/mol | 0.337 ± 0.34 kcal/mol
9 | SAGPWRIKEVDPDSYTIEIRFGDRPIEIKIPPGKEPSIMIEMDPDGHFQLTIRVPDRTRTFTIPFDDIRSAG [r5_500_TrROS] | 0.86 ± 0.13 kcal/mol | 0.591 ± 0.25 kcal/mol | 0.674 ± 0.19 kcal/mol
10 | SAGPWWMITIRLPGNKTITIMFPGVKVEVDPKNNTIRIRNPGLGHSIEFKFDPPGKIKDVDIEPIPPNASAG [r5_342_TrROS] | 3.39 ± 0.21 kcal/mol | 4.49 ± 0.13 kcal/mol | 3.95 ± 0.18 kcal/mol
11 | SAGQTITFELKDPDITPEELQKKLQKRFGMKPMNIKPVEPDPDGWRFVIEFPENGGTRTFPWEEIRELISAG [r5_550_TrROS] | 0.861 ± 0.11 kcal/mol | 1.12 ± 0.18 kcal/mol | 1.03 ± 0.13 kcal/mol
12 | SAGQWVKFTLPIYKMKYEKDKDGKPEIKEMKPIPKFDIEARVDEDGNVRIRFGGNEREFPPGESLEDLISAG [r14_909_TrROS] | 0.0407 ± 0.21 kcal/mol | 0.482 ± 0.28 kcal/mol | 0.478 ± 0.24 kcal/mol
13 | SAGRKIEIHVPYDELRELFGPGQTAEDLADWIAQEGYQIEDIEVEPEPNPNNGKKYYRVTFEVKPPKKSAGG [r19_376_TrROS] | 0.345 ± 0.054 kcal/mol | 1.28 ± 0.12 kcal/mol | 0.95 ± 0.11 kcal/mol
14 | SAGSIEIYIIYPPEDPDQPPTEEEIRSIARSLARQLGLPPKDFPIDVEWRRIDPEDGIYVYEITIEFPSAGG [r19_244_TrROS] | 2.74 ± 0.059 kcal/mol | 3.57 ± 0.062 kcal/mol | 3.27 ± 0.1 kcal/mol
15 | SAGSIPEEIAKELGLPDLKVLKVETKPLPNGPLNIKIIELELPGGFKIKVTVVEEPEKIIIKTEPVPLSAGG [r19_392_JUSTAS] | 0.966 ± 0.034 kcal/mol | 0.64 ± 0.18 kcal/mol | 0.968 ± 0.27 kcal/mol
16 | SAGSKTISISVPGNWNIEELKAFLSTLPDNVTVYIFYPNKVYVGTVDKKNINLSADSSYDGFKVLVVVPSAG [r5_373_TrMRF] | 2 ± 0.06 kcal/mol | 3.12 ± 0.028 kcal/mol | 2.84 ± 0.083 kcal/mol
17 | SAGSKTITLEFNFEELKVKVTVTYDPEGEPTVTVTTTIYAKGGEKLETKTTTVTASPDDPVVKAFLESSSAG [r5_964_JUSTAS] | 2.19 ± 0.041 kcal/mol | 3.16 ± 0.084 kcal/mol | 2.77 ± 0.074 kcal/mol
18 | SAGSLEKVTESSTSSDKVEVTTTTLTPLSNPSVPVQYVKTTTTTTLIDPATGKTLSTTTTTTTTPLPAASAG [r5_300_JUSTAS] | -0.0274 ± 0.047 kcal/mol | 0.0998 ± 0.19 kcal/mol | 0.053 ± 0.19 kcal/mol
